# Test system: Escherichia coli TOP10
# Assay: shrunken log2 fold change of peptide-encoding DNA abundance (4.5 h post-induction vs induction); higher = less antimicrobial activity (less host growth inhibition)
# Details: time post-induction: 4.5 h; library: site-saturation at positions 5, 18, 19, 20
# 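Also: peptides expressed intracellularly from a pBAD plasmid library in pooled LB shake-flask culture, induced with 0.3% L-arabinose, DNA abundance read by NGS, three biological replicates, DESeq2 with apeglm shrinkage.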
row,Sequence,shrunken log2 fold change
1,RRIRWRPPRLPRPRPRPPTSPRP,0.291
2,RRIRKRPPRLPRPRPRPQALPRP,0.228
3,RRIRMRPPRLPRPRPRPPRGPRP,1.17
4,RRIRWRPPRLPRPRPRPHCNPRP,-0.465
5,RRIRHRPPRLPRPRPRPCWYPRP,-0.0677
6,RRIRYRPPRLPRPRPRPYPLPRP,-0.146
7,RRIRWRPPRLPRPRPRPCPVPRP,-0.249
8,RRIRPRPPRLPRPRPRPKFVPRP,-0.0877
9,RRIRVRPPRLPRPRPRPWGEPRP,0.136
10,RRIRFRPPRLPRPRPRPYELPRP,0.0447
11,RRIRYRPPRLPRPRPRPTYVPRP,-0.0567
12,RRIRCRPPRLPRPRPRPWGEPRP,-0.0965
13,RRIRLRPPRLPRPRPRPNKWPRP,-0.066
14,RRIRFRPPRLPRPRPRPLPHPRP,-0.0994
15,RRIRGRPPRLPRPRPRPIWRPRP,0.744
16,RRIRWRPPRLPRPRPRPQHNPRP,-0.537
17,RRIRPRPPRLPRPRPRPIMCPRP,-0.221
18,RRIRWRPPRLPRPRPRPDVTPRP,0.0084
19,RRIRPRPPRLPRPRPRPPYWPRP,-0.123
20,RRIRKRPPRLPRPRPRPVQGPRP,-0.0824
21,RRIRIRPPRLPRPRPRPRDQPRP,-0.0489
22,RRIRHRPPRLPRPRPRPIAMPRP,-0.119

row,Sequence,shrunken log2 fold change
1,RRIRFRPPRLPRPRPRPFTVPRP,-0.246
2,RRIRTRPPRLPRPRPRPQDQPRP,0.0516
3,RRIRRRPPRLPRPRPRPHIFPRP,-0.019
4,RRIRNRPPRLPRPRPRPSWKPRP,0.0635
5,RRIRDRPPRLPRPRPRPDQLPRP,0.0963
6,RRIRYRPPRLPRPRPRPTISPRP,-0.893
7,RRIRWRPPRLPRPRPRPMYCPRP,0.0174
8,RRIRKRPPRLPRPRPRPHMNPRP,-0.295
9,RRIRKRPPRLPRPRPRPILQPRP,0.0319
10,RRIRSRPPRLPRPRPRPTKSPRP,0.0789
11,RRIRHRPPRLPRPRPRPMFNPRP,-0.608
12,RRIRPRPPRLPRPRPRPGMVPRP,0.268
13,RRIRLRPPRLPRPRPRPKMQPRP,0.282
14,RRIRPRPPRLPRPRPRPNPPPRP,0.188
15,RRIRQRPPRLPRPRPRPECDPRP,0.0401
16,RRIRPRPPRLPRPRPRPSDLPRP,-0.385
17,RRIRYRPPRLPRPRPRPVMMPRP,-0.891
18,RRIRMRPPRLPRPRPRPNQIPRP,0.283
19,RRIRSRPPRLPRPRPRPSAFPRP,-0.0159
20,RRIRLRPPRLPRPRPRPAQNPRP,0.57
21,RRIRGRPPRLPRPRPRPNWPPRP,0.306
22,RRIRWRPPRLPRPRPRPQISPRP,-0.22

row,Sequence,shrunken log2 fold change
1,RRIRRRPPRLPRPRPRPLAKPRP,0.571
2,RRIRFRPPRLPRPRPRPETPPRP,0.752
3,RRIRPRPPRLPRPRPRPTAGPRP,0.252
4,RRIRVRPPRLPRPRPRPHPIPRP,-0.0473
5,RRIRHRPPRLPRPRPRPYLDPRP,0.00552
6,RRIRRRPPRLPRPRPRPEQKPRP,0.0588
7,RRIRHRPPRLPRPRPRPCPMPRP,-0.0207
8,RRIRQRPPRLPRPRPRPHHLPRP,-0.122
9,RRIRQRPPRLPRPRPRPRCNPRP,-0.515
10,RRIRNRPPRLPRPRPRPGASPRP,0.412
11,RRIRTRPPRLPRPRPRPLWIPRP,-0.331
12,RRIRGRPPRLPRPRPRPREYPRP,0.355
13,RRIRRRPPRLPRPRPRPVKYPRP,-0.167
14,RRIRVRPPRLPRPRPRPCLRPRP,-0.146
15,RRIRWRPPRLPRPRPRPHDCPRP,-0.00141
16,RRIRDRPPRLPRPRPRPQGKPRP,0.00439
17,RRIRLRPPRLPRPRPRPPAEPRP,0.404
18,RRIRSRPPRLPRPRPRPYHRPRP,-0.507
19,RRIRCRPPRLPRPRPRPNQFPRP,-0.23
20,RRIRQRPPRLPRPRPRPCQGPRP,-0.0332
21,RRIRSRPPRLPRPRPRPHPCPRP,0.0687
22,RRIRDRPPRLPRPRPRPNVPPRP,0.0123

row,Sequence,shrunken log2 fold change
1,RRIRFRPPRLPRPRPRPFDQPRP,-0.291
2,RRIRDRPPRLPRPRPRPFLVPRP,-0.199
3,RRIRNRPPRLPRPRPRPGGPPRP,0.37
4,RRIRGRPPRLPRPRPRPYYQPRP,-0.537
5,RRIRPRPPRLPRPRPRPWAYPRP,-0.0727
6,RRIRFRPPRLPRPRPRPPRMPRP,0.332
7,RRIRGRPPRLPRPRPRPSIDPRP,1.84
8,RRIRTRPPRLPRPRPRPMMKPRP,-0.11
9,RRIRWRPPRLPRPRPRPRHIPRP,-0.0148
10,RRIRDRPPRLPRPRPRPTCCPRP,0.104
11,RRIRDRPPRLPRPRPRPSQTPRP,-0.244
12,RRIRRRPPRLPRPRPRPALVPRP,0.74
13,RRIRKRPPRLPRPRPRPCFDPRP,0.0357
14,RRIRRRPPRLPRPRPRPIQCPRP,0.00305
15,RRIRWRPPRLPRPRPRPCGMPRP,0.259
16,RRIRGRPPRLPRPRPRPCSLPRP,0.237
17,RRIRHRPPRLPRPRPRPGRPPRP,0.616
18,RRIRNRPPRLPRPRPRPCFEPRP,0.00026
19,RRIRTRPPRLPRPRPRPKFVPRP,0.368
20,RRIRARPPRLPRPRPRPKHAPRP,0.757
21,RRIRDRPPRLPRPRPRPEHPPRP,0.054
22,RRIRARPPRLPRPRPRPEKEPRP,0.248

row,Sequence,shrunken log2 fold change
1,RRIRLRPPRLPRPRPRPLPDPRP,0.327
2,RRIRFRPPRLPRPRPRPAHIPRP,-0.218
3,RRIRWRPPRLPRPRPRPMPIPRP,0.0953
4,RRIRKRPPRLPRPRPRPRQHPRP,0.499
5,RRIRPRPPRLPRPRPRPTYCPRP,0.00402
6,RRIRGRPPRLPRPRPRPMAIPRP,0.0503
7,RRIRKRPPRLPRPRPRPRPQPRP,0.865
8,RRIRMRPPRLPRPRPRPEMLPRP,3.45
9,RRIRVRPPRLPRPRPRPWASPRP,0.0586
10,RRIRLRPPRLPRPRPRPCLLPRP,-0.421
11,RRIRIRPPRLPRPRPRPHHTPRP,-0.677
12,RRIRPRPPRLPRPRPRPTRVPRP,0.547
13,RRIRIRPPRLPRPRPRPPNCPRP,-1.06
14,RRIRHRPPRLPRPRPRPQHHPRP,-0.87
15,RRIRNRPPRLPRPRPRPPLVPRP,0.089
16,RRIRWRPPRLPRPRPRPARQPRP,0.0282
17,RRIRIRPPRLPRPRPRPCATPRP,-0.122
18,RRIRLRPPRLPRPRPRPHMYPRP,-1.07
19,RRIRIRPPRLPRPRPRPCKMPRP,-0.0175
20,RRIRVRPPRLPRPRPRPYDNPRP,-0.199
21,RRIRPRPPRLPRPRPRPDPIPRP,0.0782

# Reference: the supplement of paper PMC9112550, “Optimization of the antimicrobial peptide Bac7 by deep mutational scanning” (BMC Biology, 2022)
